The text below walks through data of PMC2724277.

The chains are these.
B1: nutR boxA-spacer (ssRNA)
RNA: CGCUCUUACACAUUCCA
B2: nutR boxA (same sequence as nutL boxA) (ssRNA)
RNA: CGCUCUUA
B3: nutR boxA5-spacer (ssRNA)
RNA: CUCUCUUACACAUUCCA
B4: rrn spacer (III) (ssRNA)
RNA: ACAAUUUA
B5: nutL boxA-spacer (mut) (ssRNA)
RNA: CGCUCUUAAAAAGGAA
B6: nutR boxB (structured_RNA)
RNA: AGCCCUGAAAAAGGGC
B7: nutL boxA-spacer (ssRNA)
RNA: CGCUCUUAAAAAUUAA
B8: rrn cac-boxA-spacer (ssRNA)
RNA: CACUGCUCUUUAACAAUUUA
B9: nutR boxA16-spacer (ssRNA)
RNA: CGCUAUUACACAUUCCA
B10: nutL spacer (ssRNA)
RNA: AAAAUUAA
B11: nutR spacer (ssRNA)
RNA: CACAUUCCA

For the data set, the target named is NusA-SKK (Escherichia coli, UniProt P0AFF6 132-348). Briefly: fluorescence anisotropy.
NusA-SKK, sequence (P0AFF6 132-348): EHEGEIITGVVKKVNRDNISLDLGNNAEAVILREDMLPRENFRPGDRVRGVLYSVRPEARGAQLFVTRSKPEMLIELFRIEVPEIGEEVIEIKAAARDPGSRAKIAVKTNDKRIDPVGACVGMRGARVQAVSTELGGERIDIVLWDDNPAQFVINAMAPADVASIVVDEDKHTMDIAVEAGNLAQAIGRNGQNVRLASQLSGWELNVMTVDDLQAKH
For orientation: Kd means the equilibrium constant for the complex coming apart. A low value points to tighter binding. In turn, B1 yielded a Kd of 126 ± 4 µM.

With B2, the binding result was “no binding”.

Turning to B3, binding was put at a Kd of 124 ± 7 µM.

B4 returned an equilibrium dissociation constant (Kd) of 71 ± 3.3 µM.

As to B5, the binding result is listed as “no binding”.

B6: the binding result is on record as “no binding”.

With B7, binding was put at a Kd of 71 ± 4 µM.

B8 gave a dissociation constant (Kd) of 14 ± 0.2 µM.

On to B9, for which the Kd worked out at 106 ± 4 µM. Against the preceding molecule, the Kd is about 7.6-fold higher.

In turn, B10 showed a Kd of 24 ± 2.2 µM.

The molecule B11 returned a dissociation constant (Kd) of 137 ± 17 µM.
